The target in assay [1] is T1, human CD47 (human, UniProt Q08722 19-292).
T1 construct: On human RBCs, on OV10 cells transfected with human CD47 (OV10-hCD47) and on Jurkat T cells; also called hCD47; integrin-associated protein (IAP)
In words: flow cytometry on human RBCs and cell-based ELISA on OV10-hCD47 cells. The method, then: (§1) Binding activities of humanized mAbs to human CD47 on human RBCs were determined using flow cytometry. RBCs were incubated for 60 min on at 37° C. with various concentrations of the chimeric or humanized antibodies in a solution of phosphate buffered saline, pH 7.2, 2.5 mM EDT A (PBS+E). Cells were then washed with cold PBS+E and incubated for an additional hour on ice with a FITC labeled donkey-anti-human antibody (Jackson Immuno Research Labs, West Grove, Pa.) in PBS+E. Cells were washed with PBS+E, antibody binding analyzed using a C6 Accuri Flow Cytometer (Becton Dickinson) and apparent binding affinities determined by non-linear fit (Prism GraphPad software) of the median fluorescence intensities at the various antibody concentrations.
Binding activities of humanized mAbs were determined using a cell-based ELISA assay with human OVIO-hCD47 cells expressing cell surface human CD47. OVIO hCD47 cells were grown in IMDM medium containing 10% heat inactivated fetal bovine serum (BioWest; S01520). […] Reactions were terminated by the addition of HCl to 0.7N, and absorbance at 450 nm is determined using a Tecan model Infinite M200 plate reader. The apparent binding affinities of these clones to human OVIO-hCD47 cells was determined by non-linear fit (Prism GraphPad software).
A general note: A flow cytometer gives signals particle by particle.

For another assay, the target named is T2, rat CD47 (rat, UniProt P97829 19-303).
T2 construct: whole, on cells; also called CD47 on rat RBCs
T2 sequence (looked up): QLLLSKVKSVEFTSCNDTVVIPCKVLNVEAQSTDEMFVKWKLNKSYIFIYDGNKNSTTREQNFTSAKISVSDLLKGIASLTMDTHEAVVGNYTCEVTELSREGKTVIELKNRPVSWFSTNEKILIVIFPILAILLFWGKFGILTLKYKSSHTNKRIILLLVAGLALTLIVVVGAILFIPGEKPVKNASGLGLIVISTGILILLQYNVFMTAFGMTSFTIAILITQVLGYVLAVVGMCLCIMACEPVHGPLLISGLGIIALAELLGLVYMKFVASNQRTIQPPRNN
In words: flow cytometry on rat RBCs, apparent affinity by non-linear fit of median fluorescence.

In assay [2] the target is T1, human CD47. In words: flow cytometry on human RBCs, apparent affinity by non-linear fit of median fluorescence. The method, then: (§2) Binding activities of murine mAbs to mouse CD47 on murine RBCs (mRBCs) and human CD47 on human RBCs (hRBCs) were determined using flow cytometry. RBCs were incubated for 60 min on at 37° C. with various concentrations of the chimeric or humanized antibodies in a solution of phosphate buffered saline, pH 7.2, 2.5 mM EDT A (PBS+E). Cells were then washed with cold PBS+E and incubated for an additional hour on ice with a FITC labeled goat-anti-mouse antibody (Jackson Immuno Research Labs, West Grove, Pa.) in PBS +E. Cells were washed with PBS+E, antibody binding analyzed using a C6 Accuri How Cytometer (Becton Dickinson) and apparent binding affinities determined by non-linear fit (Prism GraphPad software) of the median fluorescence intensities at the various antibody concentrations.

In a further assay the target is T3, mouse CD47 (mouse, UniProt Q61735 19-303).
T3 construct: whole, on cells; also called CD47 on murine RBCs (mRBCs)
T3 sequence (looked up): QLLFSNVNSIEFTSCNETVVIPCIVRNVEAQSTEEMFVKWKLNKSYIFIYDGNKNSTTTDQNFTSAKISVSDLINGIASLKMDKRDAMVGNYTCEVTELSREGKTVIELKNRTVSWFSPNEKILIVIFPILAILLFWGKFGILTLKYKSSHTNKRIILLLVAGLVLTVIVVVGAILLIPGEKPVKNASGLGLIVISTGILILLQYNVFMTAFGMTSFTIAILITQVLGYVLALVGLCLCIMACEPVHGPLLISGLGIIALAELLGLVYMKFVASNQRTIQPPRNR
In words: flow cytometry on mouse RBCs, apparent affinity by non-linear fit of median fluorescence. The method, then: as §2

The next assay concerns the target T4, dog CD47 (dog).
T4 construct: whole, on cells; also called CD47 on dog RBCs
Put plainly: flow cytometry on dog RBCs, apparent affinity by non-linear fit of median fluorescence.

The target in another assay is T5, pig CD47 (pig, UniProt Q9GKE8 19-303).
T5 construct: whole, on cells; also called CD47 on pig RBCs
T5 sequence (looked up): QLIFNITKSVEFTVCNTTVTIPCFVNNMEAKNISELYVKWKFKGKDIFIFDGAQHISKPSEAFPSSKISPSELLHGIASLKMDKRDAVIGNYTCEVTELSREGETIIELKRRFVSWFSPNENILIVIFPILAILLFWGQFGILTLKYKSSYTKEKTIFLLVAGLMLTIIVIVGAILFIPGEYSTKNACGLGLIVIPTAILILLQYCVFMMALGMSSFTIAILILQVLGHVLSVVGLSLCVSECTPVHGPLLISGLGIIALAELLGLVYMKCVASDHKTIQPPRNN
In words: flow cytometry on pig RBCs, apparent affinity by non-linear fit of median fluorescence.

The target of assay [3] is T1, human CD47. Put plainly: flow cytometry on human RBCs, apparent affinity. The method, then:
as §1

The target of assay [4] is T1, human CD47. In words: cell-based ELISA on OV10-hCD47 tumor cells, apparent affinity. The method, then: Binding activities of humanized mAbs were determined using a cell-based ELISA assay with human OVIO-hCD47 cells expressing cell surface human CD47. OVIO hCD47 cells were grown in IMDM medium containing 10% heat inactivated fetal bovine serum (BioWest; S01520). One day before assay, 3×10⁴ cells were plated in 96 well cell bind plates (Corning #3300, VWR #66025-626) and were 95-100% confluent at the time of assay. Cells were washed, and various concentrations of purified antibodies added in IMDM 37° C. for 1 hr in 95%02 I 5% CO₂. Cells were then washed with media and incubated for an additional hour at 37° C. with HRP labeled secondary anti-human antibody (Promega) diluted 1/2500 in media. Cells were washed three times with PBS, and the peroxidase substrate 3,3′, 5,5′-tetramethylbenzidine is added (Sigma; Catalog #T4444). Reactions were terminated by the addition of HCl to 0.7N, and absorbance at 450 nm is determined using a Tecan model Infinite M200 plate reader. The apparent binding affinities of these clones to human OVIO-hCD47 cells was determined by non-linear fit (Prism GraphPad software).
A general note: In an ELISA, binding on a coated surface is turned into a signal by an enzyme label.

Consider 9 molecules from patent US20210324075A1 (ARCH ONCOLOGY, published 2021).

Bounds are passed on as bounds.

T1 sequence (Q08722 other isoform, or with tags, fused parts or gaps limits assumed): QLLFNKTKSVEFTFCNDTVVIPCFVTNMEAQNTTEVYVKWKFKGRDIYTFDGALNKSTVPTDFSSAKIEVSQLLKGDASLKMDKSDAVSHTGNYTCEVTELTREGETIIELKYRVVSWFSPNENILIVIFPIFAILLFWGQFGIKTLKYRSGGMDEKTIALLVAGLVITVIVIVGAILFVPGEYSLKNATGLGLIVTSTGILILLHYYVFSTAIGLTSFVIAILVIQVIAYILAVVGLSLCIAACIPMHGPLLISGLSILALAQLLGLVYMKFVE

B1: humVx10_01_IgG4PE (antibody, V domains shown)
VH: QVQLVQSGAEVKKPGASVQVSCKASGYTFTNYWIHWLRQAPGQGLEWMGYIDPNTVYTDYNQRFEDRVTMTSDTSISTAYMELSSLRSDDTAVYYCARGGKRGVDSWGQATLVTVSS
VL: DIVMTQSPLSLPVTPGEPASISCRSSQSLENSNGDTYLNWYLQKPGQSPRLLIYRVSNRFSGVPDRFSGSGSGTDFTLKISRVEADDVGIYYCLQVSHVPWTFGQGTKLEIKR
notes: Humanized full length IgG4 PE, human kappa
Consider B1, for which the binding result with human CD47 [1] is recorded as “binds”.

B2: Vx10 (antibody, V domains shown)
VH: QVQLQQSGAELAKPGASVKMSCKASGYTFTNYWIHWIKQRPGQGLEWIGYIDPNTVYTDYNQRFEDKATLTADKSSNTAYMQLNSLTSEDSAVYYCSRGGKRGVDSWGQGTSVTVSS
VL: DVVMTQTPLSLPVSLGDQASISCRSSQSLENSNGDTYLNWYLQKPGQSPQLLIYRVSNRFSGVLDRFSGSGSGTDFTLQISRVEAEDLGVYFCLQVSHVPWTFGGGTNLEIK
notes: Murine mAb; also called murine anti-CD47 mAb Vx10
Take B2: the Kd with rat CD47 was 0.179 nM; with human CD47 [2], 0.459 nM; in the assay with mouse CD47, 0.031 nM; with dog CD47, 0.714 nM; with pig CD47, 0.123 nM.

B3: Vx11 (antibody, V domains shown)
VH: EVQLQQSGAQLVKPGTSMKLSCKASGYTFTNYFLYWVKQRPGQGLEWIGDINPNAGSTNLNERFKSKATLTVDKSSSTAYLQLSGLTSEDSAVYYCTRGGYTMDYWGQGTSVTVSS
VL: DVVMTQTPLSLPVSLGDQASISCRSSQSLENSNGDTYLNWYLQKPGQSPQLLIYRVSNRFSGVLDRFSGSGSGTDFTLQISRVEAEDLGVYFCLQVSHVPWTFGGGTNLEIK
notes: Murine mAb; also called murine anti-CD47 mAb Vx11
Turning to B3, the Kd with rat CD47 was 0.231 nM; in the assay with human CD47 [2], 0.091 nM; with mouse CD47, 0.246 nM; with dog CD47, less than 0.013 nM.

B4: Vx10_mh_IgG1N297Q (antibody)
heavy: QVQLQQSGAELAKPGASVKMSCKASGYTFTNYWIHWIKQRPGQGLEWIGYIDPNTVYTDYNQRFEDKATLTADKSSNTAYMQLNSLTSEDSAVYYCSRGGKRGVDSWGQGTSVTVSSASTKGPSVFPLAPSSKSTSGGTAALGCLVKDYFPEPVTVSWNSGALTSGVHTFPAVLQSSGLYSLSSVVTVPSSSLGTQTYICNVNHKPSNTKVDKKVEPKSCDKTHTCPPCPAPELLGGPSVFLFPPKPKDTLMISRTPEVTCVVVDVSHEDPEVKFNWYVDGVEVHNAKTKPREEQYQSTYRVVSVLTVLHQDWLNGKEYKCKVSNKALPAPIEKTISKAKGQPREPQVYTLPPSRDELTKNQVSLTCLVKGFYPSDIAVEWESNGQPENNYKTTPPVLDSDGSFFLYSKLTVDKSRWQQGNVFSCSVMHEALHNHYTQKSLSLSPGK
light: DVVMTQTPLSLPVSLGDQASISCRSSQSLENSNGDTYLNWYLQKPGQSPQLLIYRVSNRFSGVLDRFSGSGSGTDFTLQISRVEAEDLGVYFCLQVSHVPWTFGGGTNLEIKRTVAAPSVFIFPPSDEQLKSGTASVVCLLNNFYPREAKVQWKVDNALQSGNSQESVTEQDSKDSTYSLSSTLTLSKADYEKHKVYACEVTHQGLSSPVTKSFNRGEC
notes: Mouse-human chimeric full length IgG, human IgG1-N297Q and human kappa, made in CHO cells; also called chimeric Vx10 IgG1 N297Q
Consider B4, for which the values for the Kd with human CD47 [3] and in the assay with human CD47 [4] were 0.04 nM and 0.087 nM, respectively.

B5: Vx10_mh_IgG4PE (antibody)
heavy: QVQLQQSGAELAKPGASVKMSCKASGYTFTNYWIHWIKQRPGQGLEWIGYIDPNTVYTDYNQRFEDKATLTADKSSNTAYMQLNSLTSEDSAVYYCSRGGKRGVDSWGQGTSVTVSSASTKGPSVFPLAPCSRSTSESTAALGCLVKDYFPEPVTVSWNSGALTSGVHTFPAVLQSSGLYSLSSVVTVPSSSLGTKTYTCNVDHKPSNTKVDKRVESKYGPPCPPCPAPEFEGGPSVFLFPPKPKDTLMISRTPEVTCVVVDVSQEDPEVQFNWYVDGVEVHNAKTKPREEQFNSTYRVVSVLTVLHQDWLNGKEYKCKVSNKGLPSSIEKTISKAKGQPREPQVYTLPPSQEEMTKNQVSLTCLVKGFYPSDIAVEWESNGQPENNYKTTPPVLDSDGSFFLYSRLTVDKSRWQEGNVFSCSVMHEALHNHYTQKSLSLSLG
light: DVVMTQTPLSLPVSLGDQASISCRSSQSLENSNGDTYLNWYLQKPGQSPQLLIYRVSNRFSGVLDRFSGSGSGTDFTLQISRVEAEDLGVYFCLQVSHVPWTFGGGTNLEIKRTVAAPSVFIFPPSDEQLKSGTASVVCLLNNFYPREAKVQWKVDNALQSGNSQESVTEQDSKDSTYSLSSTLTLSKADYEKHKVYACEVTHQGLSSPVTKSFNRGEC
notes: Mouse-human chimeric full length IgG, human IgG4 PE and human kappa, made in CHO cells; also called chimeric Vx10 IgG4PE
Consider B5, for which the Kd stood at 0.048 nM with human CD47 [3] and 0.091 nM with human CD47 [4].

B6: Vx12 (antibody, V domains shown)
VH: QVQLLQSGAQLVKPGTSMKLSCKASGYTFTNYFLYWVKQRPGQGLEWIGDINPNAGSTNLNERFKSKATLTVDKSSSTAYLQLSGLTSEDSAVYYCTRGGYTMDYWGQGTSVTVSS
VL: DVVMTQIPLSLPVSLGDQASISCRSSQSLVHSNGNTYLHWYLQKPGQSPKLLIYKVSNRFSGVPDRFSGSGSGTDFTLKISRVEAEDLGVYFCSQSTHVPRTFGGGTKLEIK
notes: Murine mAb; also called murine anti-CD47 mAb Vx12
As for B6, the Kd with human CD47 [2] is 0.384 nM; in the assay with mouse CD47, less than 0.013 nM; in the assay with dog CD47 it was 0.101 nM; with pig CD47, 0.06 nM.

B7: Vx12_mh_IgG1N297Q (antibody)
heavy: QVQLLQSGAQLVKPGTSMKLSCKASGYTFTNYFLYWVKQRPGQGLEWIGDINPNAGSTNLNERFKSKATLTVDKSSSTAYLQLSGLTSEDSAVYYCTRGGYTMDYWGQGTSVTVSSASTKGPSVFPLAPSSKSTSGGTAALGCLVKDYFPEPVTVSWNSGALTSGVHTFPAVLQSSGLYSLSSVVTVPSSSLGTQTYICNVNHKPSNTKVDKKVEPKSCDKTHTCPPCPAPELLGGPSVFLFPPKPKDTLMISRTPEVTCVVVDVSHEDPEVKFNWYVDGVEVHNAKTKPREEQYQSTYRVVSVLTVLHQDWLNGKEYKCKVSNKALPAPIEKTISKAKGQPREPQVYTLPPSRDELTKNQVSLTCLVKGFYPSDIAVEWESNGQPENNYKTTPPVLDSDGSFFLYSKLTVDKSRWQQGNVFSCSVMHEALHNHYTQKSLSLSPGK
light: DVVMTQIPLSLPVSLGDQASISCRSSQSLVHSNGNTYLHWYLQKPGQSPKLLIYKVSNRFSGVPDRFSGSGSGTDFTLKISRVEAEDLGVYFCSQSTHVPRTFGGGTKLEIKRTVAAPSVFIFPPSDEQLKSGTASVVCLLNNFYPREAKVQWKVDNALQSGNSQESVTEQDSKDSTYSLSSTLTLSKADYEKHKVYACEVTHQGLSSPVTKSFNRGEC
notes: Mouse-human chimeric full length IgG, human IgG1-N297Q and human kappa, made in CHO cells; also called chimeric Vx12 IgG1 N297Q
As for B7, the Kd with human CD47 [3] was 0.09 nM; with human CD47 [4], 0.069 nM.

B8: Vx12_mh_IgG4PE (antibody)
heavy: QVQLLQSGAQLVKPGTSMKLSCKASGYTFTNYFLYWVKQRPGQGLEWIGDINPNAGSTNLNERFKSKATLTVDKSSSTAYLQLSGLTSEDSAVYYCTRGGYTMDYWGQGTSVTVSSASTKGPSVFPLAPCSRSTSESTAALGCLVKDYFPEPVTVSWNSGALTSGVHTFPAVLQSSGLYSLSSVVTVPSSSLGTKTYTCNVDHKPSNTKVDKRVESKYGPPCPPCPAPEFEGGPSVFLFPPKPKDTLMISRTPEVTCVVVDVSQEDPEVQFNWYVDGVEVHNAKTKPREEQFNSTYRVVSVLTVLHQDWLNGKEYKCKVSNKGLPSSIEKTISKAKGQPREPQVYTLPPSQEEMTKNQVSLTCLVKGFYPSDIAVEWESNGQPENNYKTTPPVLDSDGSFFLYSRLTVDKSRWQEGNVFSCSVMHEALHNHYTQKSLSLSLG
light: DVVMTQIPLSLPVSLGDQASISCRSSQSLVHSNGNTYLHWYLQKPGQSPKLLIYKVSNRFSGVPDRFSGSGSGTDFTLKISRVEAEDLGVYFCSQSTHVPRTFGGGTKLEIKRTVAAPSVFIFPPSDEQLKSGTASVVCLLNNFYPREAKVQWKVDNALQSGNSQESVTEQDSKDSTYSLSSTLTLSKADYEKHKVYACEVTHQGLSSPVTKSFNRGEC
notes: Mouse-human chimeric full length IgG, human IgG4 PE and human kappa, made in CHO cells; also called chimeric Vx12 IgG4PE
Turning to B8, the Kd is 0.12 nM with human CD47 [3] and 0.07 nM with human CD47 [4].

B9: Vx13 (antibody, V domains shown)
VH: EVQLQQSGPEVVKPGASVRISCKASDYTFTNYYIHWVRQRPGQGLEWIGWIYPGNNNNKYNEKFKGKATLTEDTSSSTAYMQLSSLTSEDSAVYFCARGGYTMDYWGQG
VL: DVLMTQTPLSLPVSLGDQASISCRSSQSLVHSNGNTYLHWYLQKPGQSPNLLIYKVSNRFSGVPDRFSGSGSGTDFTLKINRVETEDLGIYFCSQSTHVLTFGAG
notes: Murine mAb; also called murine anti-CD47 mAb Vx13
Take B9: the Kd in the assay with human CD47 [2] is 0.874 nM; in the assay with dog CD47 it was 1.62 nM; with pig CD47 it was 0.102 nM.
